Data taken from the Human Domainome abundance scans (Beltran et al. 2025).
± gives the uncertainty stated by the source.

B1: Zinc finger homeobox protein 4, residues 2562 to 2617; numbered along this chain, Q86UP3 (parent)
chain: RLRTTITPEQLEILYEKYLLDSNPTRKMLDHIAREVGLKKRVVQVWFQNTRARERK

Variants of: B1
Assay: abundance fitness (aPCA) (normalised: wild type 0, dead -1); higher = more abundant; growth selection in yeast, the domain comes from the species named
Conditions: Homo sapiens

In order of rising abundance fitness:
1. RLRRTITPEQLEILYEKYLLDSNPTRKMLDHIAREVGLKKRVVQVWFQNTRARERK [T4R]  -0.63 ± 0.075
2. RQRTTITPEQLEILYEKYLLDSNPTRKMLDHIAREVGLKKRVVQVWFQNTRARERK [L2Q]  -0.603 ± 0.2
3. RLRNTITPEQLEILYEKYLLDSNPTRKMLDHIAREVGLKKRVVQVWFQNTRARERK [T4N]  -0.488 ± 0.18
4. RWRTTITPEQLEILYEKYLLDSNPTRKMLDHIAREVGLKKRVVQVWFQNTRARERK [L2W]  -0.421 ± 0.12
5. RLRKTITPEQLEILYEKYLLDSNPTRKMLDHIAREVGLKKRVVQVWFQNTRARERK [T4K]  -0.408 ± 0.12
6. RLRTAITPEQLEILYEKYLLDSNPTRKMLDHIAREVGLKKRVVQVWFQNTRARERK [T5A]  -0.398 ± 0.22
7. RHRTTITPEQLEILYEKYLLDSNPTRKMLDHIAREVGLKKRVVQVWFQNTRARERK [L2H]  -0.357 ± 0.22
8. RLRWTITPEQLEILYEKYLLDSNPTRKMLDHIAREVGLKKRVVQVWFQNTRARERK [T4W]  -0.305 ± 0.057
9. RLRCTITPEQLEILYEKYLLDSNPTRKMLDHIAREVGLKKRVVQVWFQNTRARERK [T4C]  -0.209 ± 0.09
10. RLRVTITPEQLEILYEKYLLDSNPTRKMLDHIAREVGLKKRVVQVWFQNTRARERK [T4V]  -0.179 ± 0.07
11. RRRTTITPEQLEILYEKYLLDSNPTRKMLDHIAREVGLKKRVVQVWFQNTRARERK [L2R]  -0.176 ± 0.076
12. RLRLTITPEQLEILYEKYLLDSNPTRKMLDHIAREVGLKKRVVQVWFQNTRARERK [T4L]  -0.165 ± 0.073
13. RLWTTITPEQLEILYEKYLLDSNPTRKMLDHIAREVGLKKRVVQVWFQNTRARERK [R3W]  -0.156 ± 0.056
14. RLRHTITPEQLEILYEKYLLDSNPTRKMLDHIAREVGLKKRVVQVWFQNTRARERK [T4H]  -0.145 ± 0.079
15. RGRTTITPEQLEILYEKYLLDSNPTRKMLDHIAREVGLKKRVVQVWFQNTRARERK [L2G]  -0.132 ± 0.079
16. RIRTTITPEQLEILYEKYLLDSNPTRKMLDHIAREVGLKKRVVQVWFQNTRARERK [L2I]  -0.115 ± 0.14
17. RLRYTITPEQLEILYEKYLLDSNPTRKMLDHIAREVGLKKRVVQVWFQNTRARERK [T4Y]  -0.109 ± 0.15
18. RLRQTITPEQLEILYEKYLLDSNPTRKMLDHIAREVGLKKRVVQVWFQNTRARERK [T4Q]  -0.096 ± 0.12
19. RLRFTITPEQLEILYEKYLLDSNPTRKMLDHIAREVGLKKRVVQVWFQNTRARERK [T4F]  -0.062 ± 0.13
20. RLRSTITPEQLEILYEKYLLDSNPTRKMLDHIAREVGLKKRVVQVWFQNTRARERK [T4S]  -0.057 ± 0.07
21. RLRGTITPEQLEILYEKYLLDSNPTRKMLDHIAREVGLKKRVVQVWFQNTRARERK [T4G]  -0.052 ± 0.053
22. RVRTTITPEQLEILYEKYLLDSNPTRKMLDHIAREVGLKKRVVQVWFQNTRARERK [L2V]  -0.023 ± 0.061
23. RLRMTITPEQLEILYEKYLLDSNPTRKMLDHIAREVGLKKRVVQVWFQNTRARERK [T4M]  -0.022 ± 0.085
24. RLFTTITPEQLEILYEKYLLDSNPTRKMLDHIAREVGLKKRVVQVWFQNTRARERK [R3F]  -0.02 ± 0.14
25. RLLTTITPEQLEILYEKYLLDSNPTRKMLDHIAREVGLKKRVVQVWFQNTRARERK [R3L]  -0.008 ± 0.072
26. RLPTTITPEQLEILYEKYLLDSNPTRKMLDHIAREVGLKKRVVQVWFQNTRARERK [R3P]  -0.004 ± 0.11
27. RMRTTITPEQLEILYEKYLLDSNPTRKMLDHIAREVGLKKRVVQVWFQNTRARERK [L2M]  0.024 ± 0.11
28. RLRPTITPEQLEILYEKYLLDSNPTRKMLDHIAREVGLKKRVVQVWFQNTRARERK [T4P]  0.037 ± 0.11
29. RFRTTITPEQLEILYEKYLLDSNPTRKMLDHIAREVGLKKRVVQVWFQNTRARERK [L2F]  0.066 ± 0.063
30. RTRTTITPEQLEILYEKYLLDSNPTRKMLDHIAREVGLKKRVVQVWFQNTRARERK [L2T]  0.105 ± 0.12
31. RLATTITPEQLEILYEKYLLDSNPTRKMLDHIAREVGLKKRVVQVWFQNTRARERK [R3A]  0.119 ± 0.053
32. RLVTTITPEQLEILYEKYLLDSNPTRKMLDHIAREVGLKKRVVQVWFQNTRARERK [R3V]  0.132 ± 0.067
33. RSRTTITPEQLEILYEKYLLDSNPTRKMLDHIAREVGLKKRVVQVWFQNTRARERK [L2S]  0.161 ± 0.068
34. RLMTTITPEQLEILYEKYLLDSNPTRKMLDHIAREVGLKKRVVQVWFQNTRARERK [R3M]  0.182 ± 0.072
35. RLGTTITPEQLEILYEKYLLDSNPTRKMLDHIAREVGLKKRVVQVWFQNTRARERK [R3G]  0.194 ± 0.062
36. RLETTITPEQLEILYEKYLLDSNPTRKMLDHIAREVGLKKRVVQVWFQNTRARERK [R3E]  0.207 ± 0.1
37. RKRTTITPEQLEILYEKYLLDSNPTRKMLDHIAREVGLKKRVVQVWFQNTRARERK [L2K]  0.24 ± 0.1
38. RLKTTITPEQLEILYEKYLLDSNPTRKMLDHIAREVGLKKRVVQVWFQNTRARERK [R3K]  0.288 ± 0.11
39. RLSTTITPEQLEILYEKYLLDSNPTRKMLDHIAREVGLKKRVVQVWFQNTRARERK [R3S]  0.301 ± 0.073
40. RLRDTITPEQLEILYEKYLLDSNPTRKMLDHIAREVGLKKRVVQVWFQNTRARERK [T4D]  0.304 ± 0.089
41. RNRTTITPEQLEILYEKYLLDSNPTRKMLDHIAREVGLKKRVVQVWFQNTRARERK [L2N]  0.309 ± 0.09
42. RLITTITPEQLEILYEKYLLDSNPTRKMLDHIAREVGLKKRVVQVWFQNTRARERK [R3I]  0.319 ± 0.12
43. RLTTTITPEQLEILYEKYLLDSNPTRKMLDHIAREVGLKKRVVQVWFQNTRARERK [R3T]  0.359 ± 0.089
44. RLQTTITPEQLEILYEKYLLDSNPTRKMLDHIAREVGLKKRVVQVWFQNTRARERK [R3Q]  0.424 ± 0.11
45. RERTTITPEQLEILYEKYLLDSNPTRKMLDHIAREVGLKKRVVQVWFQNTRARERK [L2E]  0.429 ± 0.079
46. RLDTTITPEQLEILYEKYLLDSNPTRKMLDHIAREVGLKKRVVQVWFQNTRARERK [R3D]  0.68 ± 0.12
47. RLNTTITPEQLEILYEKYLLDSNPTRKMLDHIAREVGLKKRVVQVWFQNTRARERK [R3N]  0.829 ± 0.18
